6 molecules from patent US20240190989A1 (BEIGENE SWITZERLAND, published 2024) can be followed below.

Read-outs that look alike come from different tables or passages of the source.

For test [1], the target named is T1, full-length human CD137 on cells (Hut78/huCD137, HEK293 transfectants, JK-NFKB-CD137) (human, UniProt Q07011 24-255). Put plainly: cell-based or functional assay.
The target of test [2] is T1, full-length human CD137 on cells …. As to the kind of experiment: cell-based or functional assay. This is another data set of the same source.
The target in test [3] is T2, human CD137 ECD-mIgG2a (human).
T2 construct: ECD 24-183 of huCD137 fused to mouse IgG2a Fc; also called huCD137-mIgG2a; huCD137
Put plainly: SPR, A-CEAxCD137 format. (In general: Surface plasmon resonance follows binding to a sensor surface in real time, without labels.)

For test [4], the target named is T1, full-length human CD137 on cells …. As to the kind of experiment: flow cytometry on Hut78/huCD137 cells. Background: In flow cytometry, cells or beads pass a laser one at a time.
The target in test [5] is T2, human CD137 ECD-mIgG2a. As to the kind of experiment: SPR, human CD137 ECD-mIgG2a.
Test [6] concerns the target T3, full-length human CEA on cells (MKN45, LOVO, L929/huCEA, CT26/CEA, CT26-OS8-CEA) (human, UniProt P06731 35-685).
T3 construct: also called CEACAM5; native CEA
T3 sequence: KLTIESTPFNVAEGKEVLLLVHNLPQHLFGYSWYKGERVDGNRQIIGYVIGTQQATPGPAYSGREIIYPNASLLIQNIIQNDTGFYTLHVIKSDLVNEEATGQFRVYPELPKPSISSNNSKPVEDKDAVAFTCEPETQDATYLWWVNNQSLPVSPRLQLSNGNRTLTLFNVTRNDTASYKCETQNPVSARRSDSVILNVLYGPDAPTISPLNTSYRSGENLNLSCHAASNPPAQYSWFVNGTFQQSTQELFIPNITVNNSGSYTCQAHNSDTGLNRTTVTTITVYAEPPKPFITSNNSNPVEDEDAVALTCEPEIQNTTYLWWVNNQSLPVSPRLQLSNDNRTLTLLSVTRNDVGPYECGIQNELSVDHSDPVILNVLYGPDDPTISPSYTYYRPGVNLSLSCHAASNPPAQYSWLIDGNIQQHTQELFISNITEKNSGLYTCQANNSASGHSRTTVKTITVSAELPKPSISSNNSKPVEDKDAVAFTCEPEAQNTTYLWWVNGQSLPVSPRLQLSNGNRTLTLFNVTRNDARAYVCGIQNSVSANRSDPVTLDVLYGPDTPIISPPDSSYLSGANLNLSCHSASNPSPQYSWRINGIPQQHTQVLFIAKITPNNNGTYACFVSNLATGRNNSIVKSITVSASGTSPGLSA
Put plainly: flow cytometry on CT26/CEA cells.

Test [7] deals with T1, full-length human CD137 on cells …. Put plainly: flow cytometry on Hut78/huCD137 cells. The source holds these as a separate data set.
The target of test [8] is T2, human CD137 ECD-mIgG2a. As to the kind of experiment: SPR, Fc fusion VH.
In test [9] the target is T2, human CD137 ECD-mIgG2a. Put plainly: SPR, Fc-fusion VH captured.
Test [10] has as its target T1, full-length human CD137 on cells …. As to the kind of experiment: flow cytometry on Hut78/huCD137 cells. This is another data set of the same source.

T1 sequence (Q07011 24-255 limits assumed): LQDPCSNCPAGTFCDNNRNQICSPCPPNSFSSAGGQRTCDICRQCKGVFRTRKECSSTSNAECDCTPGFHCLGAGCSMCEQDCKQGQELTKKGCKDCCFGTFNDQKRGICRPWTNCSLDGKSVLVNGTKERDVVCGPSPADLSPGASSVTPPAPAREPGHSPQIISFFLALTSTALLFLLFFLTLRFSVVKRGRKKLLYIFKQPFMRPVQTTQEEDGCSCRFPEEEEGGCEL
T2 sequence (chain, as listed by the source limits assumed): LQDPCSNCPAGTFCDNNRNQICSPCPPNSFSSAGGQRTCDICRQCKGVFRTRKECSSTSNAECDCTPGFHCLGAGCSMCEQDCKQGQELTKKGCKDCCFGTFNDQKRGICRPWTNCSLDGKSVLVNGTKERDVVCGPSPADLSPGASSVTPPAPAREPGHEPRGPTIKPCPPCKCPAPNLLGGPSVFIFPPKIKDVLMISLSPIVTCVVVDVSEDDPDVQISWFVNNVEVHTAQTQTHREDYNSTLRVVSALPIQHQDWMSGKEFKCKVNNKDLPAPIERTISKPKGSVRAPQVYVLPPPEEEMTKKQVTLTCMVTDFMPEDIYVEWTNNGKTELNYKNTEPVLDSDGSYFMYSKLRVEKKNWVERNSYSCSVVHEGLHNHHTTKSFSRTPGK

B1: BE-189 (Format A BGA-5623) (bispecific antibody, human IgG1, kappa)
heavy: QVQLVQSGAEVKKPGASVKVSCKASGYIFTSYYLHWVRQAPGQGLEWIGYINPQTGKTSYAQKFQGRVTMTRDTSTSTVYMELSSLRSEDTAVYYCAREYGNYNYPLDYWGQGTLVTVSSASTKGPSVFPLAPSSKSTSGGTAALGCLVKDYFPEPVTVSWNSGALTSGVHTFPAVLQSSGLYSLSSVVTVPSSSLGTQTYICNVNHKPSNTKVDKKVEPKSCDKTHTCPPCPAPPAAGPSVFLFPPKPKDTLMISRTPEVTCVVVDVSHEDPEVKFNWYVDGVEVHNAKTKPREEQYNSTYRVVSVLTVLHQDWLNGKEYKCKVSNKALAAPIEKTISKAKGQPREPQVYTLPPSREEMTKNQVSLTCLVKGFYPSDIAVEWESNGQPENNYKTTPPVLDSDGSFFLYSKLTVDKSRWQQGNVFSCSVMHEALHNHYTQKSLSLSPGKGGGGSEVQLLESGGGLVQPGGSLRLSCAASGFTVSAEDVGWVRQAPGKGLEWVSAILDKGGSTYYAESVKGRFTISRDNAKNTLYLQMSSLRAEDTAVYYCARIVYHAGGGVTFDTRGQGTQVTVSS
light: DIQMTQSPSSLSASVGDRVTITCRASENQYGYLAWYQQKPGKVPKLLIYNYKNLVEGVPSRFSGSGSGTDFTLTISSLQPEDVATYYCQHHLGTPYTFGQGTKVEIKRTVAAPSVFIFPPSDEQLKSGTASVVCLLNNFYPREAKVQWKVDNALQSGNSQESVTEQDSKDSTYSLSSTLTLSKADYEKHKVYACEVTHQGLSSPVTKSFNRGEC
notes: Module ratio 2:2, inert Fc
Regarding B1, the “Functional assay EC50 (PBMC cytokine release, in vitro CD137 activation)” value in [1] was 0.31 µg/mL. The “Functions EC50 (PBMC cytokine release)” value in test [2] stood at 0.341 µg/mL. Further, the affinity in [3], expressed as Kd, was 94.8 nM. Further, in test [4], the response was half-maximal at 0.38 µg/mL (EC50).

B2: D-CD137/CEA (Format D: BGA-4712 VH fused to the N-terminus of the heavy chain of the anti-CEA antibody) (bispecific antibody, human IgG1, kappa)
heavy: EVQLLESGGGLVQPGGSLRLSCAASGFMLSAEDVGWVRQAPGKGLEWVSAILDFGGSTYYADSVKGRFTISRDNSKNTLYLQMNSLRAEDTAVYYCARVVYHAGGGVTFDYWGQGTLVTVSSSGGGGSQVQLVQSGAEVKKPGASVKVSCKASGYIFTSYYLHWVRQAPGQGLEWIGYINPQTGKTSYAQKFQGRVTMTRDTSTSTVYMELSSLRSEDTAVYYCAREYGNYNYPLDYWGQGTLVTVSSASTKGPSVFPLAPSSKSTSGGTAALGCLVKDYFPEPVTVSWNSGALTSGVHTFPAVLQSSGLYSLSSVVTVPSSSLGTQTYICNVNHKPSNTKVDKKVEPKSCDKTHTCPPCPAPPAAGPSVFLFPPKPKDTLMISRTPEVTCVVVDVSHEDPEVKFNWYVDGVEVHNAKTKPREEQYNSTYRVVSVLTVLHQDWLNGKEYKCKVSNKALAAPIEKTISKAKGQPREPQVYTLPPSREEMTKNQVSLTCLVKGFYPSDIAVEWESNGQPENNYKTTPPVLDSDGSFFLYSKLTVDKSRWQQGNVFSCSVMHEALHNHYTQKSLSLSPGK
light: DIQMTQSPSSLSASVGDRVTITCRASENQYGYLAWYQQKPGKVPKLLIYNYKNLVEGVPSRFSGSGSGTDFTLTISSLQPEDVATYYCQHHLGTPYTFGQGTKVEIKRTVAAPSVFIFPPSDEQLKSGTASVVCLLNNFYPREAKVQWKVDNALQSGNSQESVTEQDSKDSTYSLSSTLTLSKADYEKHKVYACEVTHQGLSSPVTKSFNRGEC
notes: Symmetric IgG-like molecule, inert Fc; also called D-CEAxCD137
Regarding B2, binding in test [5] was characterised by a dissociation constant (Kd) of 78 nM. Further, the EC50 (commonly the concentration that produces a half-maximal response) in [6] came to 3.78 µg/mL; in [7], 2.28 µg/mL.

B3: A-CD137/CEA (Format A: BGA-4712 VH fused to the C-terminus of the Fc of the anti-CEA antibody) (bispecific antibody, human IgG1, kappa)
heavy: QVQLVQSGAEVKKPGASVKVSCKASGYIFTSYYLHWVRQAPGQGLEWIGYINPQTGKTSYAQKFQGRVTMTRDTSTSTVYMELSSLRSEDTAVYYCAREYGNYNYPLDYWGQGTLVTVSSASTKGPSVFPLAPSSKSTSGGTAALGCLVKDYFPEPVTVSWNSGALTSGVHTFPAVLQSSGLYSLSSVVTVPSSSLGTQTYICNVNHKPSNTKVDKKVEPKSCDKTHTCPPCPAPPAAGPSVFLFPPKPKDTLMISRTPEVTCVVVDVSHEDPEVKFNWYVDGVEVHNAKTKPREEQYNSTYRVVSVLTVLHQDWLNGKEYKCKVSNKALAAPIEKTISKAKGQPREPQVYTLPPSREEMTKNQVSLTCLVKGFYPSDIAVEWESNGQPENNYKTTPPVLDSDGSFFLYSKLTVDKSRWQQGNVFSCSVMHEALHNHYTQKSLSLSPGKGGGGSEVQLLESGGGLVQPGGSLRLSCAASGFMLSAEDVGWVRQAPGKGLEWVSAILDFGGSTYYADSVKGRFTISRDNSKNTLYLQMNSLRAEDTAVYYCARVVYHAGGGVTFDYWGQGTLVTVSS
light: DIQMTQSPSSLSASVGDRVTITCRASENQYGYLAWYQQKPGKVPKLLIYNYKNLVEGVPSRFSGSGSGTDFTLTISSLQPEDVATYYCQHHLGTPYTFGQGTKVEIKRTVAAPSVFIFPPSDEQLKSGTASVVCLLNNFYPREAKVQWKVDNALQSGNSQESVTEQDSKDSTYSLSSTLTLSKADYEKHKVYACEVTHQGLSSPVTKSFNRGEC
notes: Symmetric IgG-like molecule, inert Fc; also called A-CEAxCD137; A-CEA/CD137
For the molecule B3, the dissociation constant (Kd) (as a rule, a measure of binding affinity in units of concentration) in test [5] was found to be 360 nM. Besides, the concentration giving a half-maximal response (EC50) in [6] is 0.75 µg/mL; in test [7], 0.57 µg/mL.

B4: Format A BGA-3386 (bispecific antibody, human IgG1, kappa)
heavy: QVQLVQSGAEVKKPGASVKVSCKASGYIFTSYYLHWVRQAPGQGLEWIGYINPQTGKTSYAQKFQGRVTMTRDTSTSTVYMELSSLRSEDTAVYYCAREYGNYNYPLDYWGQGTLVTVSSASTKGPSVFPLAPSSKSTSGGTAALGCLVKDYFPEPVTVSWNSGALTSGVHTFPAVLQSSGLYSLSSVVTVPSSSLGTQTYICNVNHKPSNTKVDKKVEPKSCDKTHTCPPCPAPPAAGPSVFLFPPKPKDTLMISRTPEVTCVVVDVSHEDPEVKFNWYVDGVEVHNAKTKPREEQYNSTYRVVSVLTVLHQDWLNGKEYKCKVSNKALAAPIEKTISKAKGQPREPQVYTLPPSREEMTKNQVSLTCLVKGFYPSDIAVEWESNGQPENNYKTTPPVLDSDGSFFLYSKLTVDKSRWQQGNVFSCSVMHEALHNHYTQKSLSLSPGKGGGGSEVQLLESGGGLVQPGGSLRLSCAASGFTVSAEDVGWVRQAPGKGLEWVSAILDKGGSTYYAESVKGRFTISRDNAKNTLYLQMSSLRAEDTAVYYCARIVYHAGGGVTFDTWGQGTLVTVSS
light: DIQMTQSPSSLSASVGDRVTITCRASENQYGYLAWYQQKPGKVPKLLIYNYKNLVEGVPSRFSGSGSGTDFTLTISSLQPEDVATYYCQHHLGTPYTFGQGTKVEIKRTVAAPSVFIFPPSDEQLKSGTASVVCLLNNFYPREAKVQWKVDNALQSGNSQESVTEQDSKDSTYSLSSTLTLSKADYEKHKVYACEVTHQGLSSPVTKSFNRGEC
Take B4: the “Functions EC50 (PBMC cytokine release)” value in [2] amounted to 0.0768 µg/mL. In [3], this molecule had a Kd of 21.4 nM. In test [4], this molecule gave a concentration giving a half-maximal response (EC50) of 0.21 µg/mL.

B5: BGA-4712-M3-mutFc (Fc fusion VH) (Fc fusion)
chain: EVQLLESGGGLVQPGGSLRLSCAASGFTLSAEDVGWVRQAPGKGLEWVSAILDFGGSTYYAESVKGRFTISRDNAKNTLYLQMSSLRAEDTAVYYCARVVYHAGGGVTFDYWGQGTLVTVSSGGGGSDKTHTCPPCPAPPAAGPSVFLFPPKPKDTLMISRTPEVTCVVVDVSHEDPEVKFNWYVDGVEVHNAKTKPREEQYNSTYRVVSVLTVLHQDWLNGKEYKCKVSNKALAAPIEKTISKAKGQPREPQVYTLPPSREEMTKNQVSLTCLVKGFYPSDIAVEWESNGQPENNYKTTPPVLDSDGSFFLYSKLTVDKSRWQQGNVFSCSVMHEALHNHYTQKSLSLSPGK
Take B5: the Kd in test [8] and in test [9] was 169 nM each time. In test [10], this molecule gave an EC50 of 2.37 µg/mL.

B6: BGA-7556-mutFc (Fc fusion VH) (Fc fusion)
chain: EVQLLESGGGLVQPGGSLRLSCAASGFTLSAEDVGWVRQAPGKGLEWVSAILDFGGSTYYAESVKGRFTISRDNAKNTLYLQMSSLRAEDTAVYYCARVVYHAGGGVTFDYRGQGTQVTVSSGGGGSDKTHTCPPCPAPPAAGPSVFLFPPKPKDTLMISRTPEVTCVVVDVSHEDPEVKFNWYVDGVEVHNAKTKPREEQYNSTYRVVSVLTVLHQDWLNGKEYKCKVSNKALAAPIEKTISKAKGQPREPQVYTLPPSREEMTKNQVSLTCLVKGFYPSDIAVEWESNGQPENNYKTTPPVLDSDGSFFLYSKLTVDKSRWQQGNVFSCSVMHEALHNHYTQKSLSLSPGK
B6: the Kd in test [8] and in test [9] was 200 nM in each case. The molecule further showed a concentration for a half-maximal effect (EC50) in test [10] of 5.71 µg/mL.
